For test [1], the target named is T1, BSA (UniProt P02769 25-607).
T1 construct: Control coating protein of the ELISA
Nature of the test: ELISA, plate coated with BSA, hybridoma supernatant. The method, then: (§1) ELISA was performed using the DuoSet ELISA Ancillary Kit (R&D System, DY008). ELISA plates were coated with 1 μg/ml of human CDH17 His Tag (Sino biological, catalog number 11360-H08H), or BSA overnight. Excess unbound proteins were washed off by washing the plates three times with the wash buffer before blocking for 1 hour at room temperature. 100 μl CDH17 hybridoma supernatant was added in each well and incubated for 1 hour at room temperature. Excess unbound antibodies were washed off and 100 μl of 1:30000 diluted secondary antibody Goat anti-mouse IgG Fc-HRP (ab5870) was added to each well for another 1 hour. Plates were washed before the addition 50 μL of […] (color A and color B) according to manufacturer's protocol. The reactions were stopped using 25 μL of stop solution. Optical density at 450 nm of samples was measured by a microplate reader (PerkinElmer).

For test [2], the target named is T1, BSA. Nature of the test: ELISA, plate coated with 1 µg/ml BSA, hybridoma supernatant. The method, then:
as §1
For orientation: ELISA stands for enzyme-linked immunosorbent assay.

Test [3] addresses T2, human CDH17 His Tag (Sino biological, catalog number 11360-H08H) (human, UniProt Q12864 23-787).
T2 construct: Bought recombinant protein; also called hCDH17; human CDH17 protein; not shown: His tag
The test is described as follows: ELISA, plate coated with 1 µg/ml human CDH17 His Tag, hybridoma supernatant. As for the experimental part: as §1

The target in test [4] is T3, human CDH17 as originally expressed in cells (cell surface CDH17 on AsPC1, GP2d and other cancer cell lines) (human, UniProt Q12864 23-832).
T3 construct: whole, on cells; Endogenous CDH17 on human cancer cell lines; AsPC1 and GP2d are named CDH17 positive; also called CDH17 positive AsPC1 cells; GP2d cells
Nature of the test: flow cytometry titration on CDH17 positive AsPC1 cells. The method, then:
To determine the binding of recombinant antibody to cell surface CDH17 receptors, cells were first harvested and resuspended in cell staining buffer (BioLegend, Cat #420201) at 1.3-1.5×10⁶ cells/mL. Then, the cells were treated with human Fc receptor blocking reagent (BioLegend, Cat #422302) on the ice for 10 min. The resulting cell suspension was aliquoted into 50 μL aliquots. […] The cells were incubated on the ice for 1 hour and then washed with cell staining buffer twice. 50 μL of secondary antibody (PE conjugated goat anti-human Fc, eBioscience™, 1:250 dilution) was added to each sample to resuspend the cells. The cells were incubated on the ice for another 20 min. Cells were subsequently washed twice with cell staining buffer and resuspended in 4% PFA to fix the cells. The samples were analyzed using iQue3 to measure the median fluorescence intensity using corresponding channels.
In general terms: In flow cytometry, cells or beads pass a laser one at a time.

Test [5] concerns the target T3, human CDH17 as originally expressed in …. The test is described as follows: cell-based or functional assay.

Usually Kd stands for the constant that tells how readily two partners part at equilibrium. Read a low Kd as tighter binding.

Residue numbers refer to the chain shown, from its start.

T1 sequence (P02769 25-607 limits assumed): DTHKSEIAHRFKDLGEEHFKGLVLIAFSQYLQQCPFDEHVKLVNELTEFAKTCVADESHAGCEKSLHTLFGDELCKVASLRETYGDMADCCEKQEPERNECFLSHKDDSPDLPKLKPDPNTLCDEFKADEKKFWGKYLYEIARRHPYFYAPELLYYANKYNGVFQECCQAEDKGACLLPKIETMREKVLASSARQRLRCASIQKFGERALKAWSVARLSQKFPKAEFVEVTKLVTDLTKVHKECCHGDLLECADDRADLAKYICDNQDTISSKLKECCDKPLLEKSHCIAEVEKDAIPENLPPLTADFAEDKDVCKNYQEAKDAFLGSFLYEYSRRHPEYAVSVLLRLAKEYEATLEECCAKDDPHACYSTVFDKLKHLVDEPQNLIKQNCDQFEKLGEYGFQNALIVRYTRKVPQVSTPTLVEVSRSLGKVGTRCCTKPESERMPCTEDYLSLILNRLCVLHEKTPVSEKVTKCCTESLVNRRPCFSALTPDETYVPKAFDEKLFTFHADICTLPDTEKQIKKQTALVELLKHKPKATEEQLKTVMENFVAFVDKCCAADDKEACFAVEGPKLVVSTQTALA

B1: 14B12 (hybridoma clone supernatant) (antibody, V domains shown)
VH: QVQLQESGPGLVKPSETLSLTCTVSGGSINTYYRSWIRQPPGKGLEWIGYIYYSGNTNYNPSLKSRVTISADTSKNQFSLNLISVTAADTAMYYCARAQYGEEAFDIWGQGTLVTVSS
VL: DIQMTQSPSSLSASVGDRVTITCRASQSITTYLNWYQQKPGKAPQLLIFAASRLQTGVPSRFSGSGSGTDFTLTISSLLPGDFATYYCQQSYNTPPTFGGGTKVEIK
notes: Hybridoma supernatant
Take B1: the OD450 with BSA [1] was found to be 0.041 OD450; in test [3] it was 1.88 OD450. Moreover, the binding result with BSA [2] is reported as “no binding”.

B2: 2F9 anti-CDH17 recombinant antibody (human IgG1) (antibody, V domains shown)
VH: EVQLVESGGGVVRPGGSLRLSCAASGFTFDDYGMSWVRQAPGKGLEWVSGLSWNGGNTYYADSVKGRFTISRDNAKNSLYLQMNSLRAEDTALYYCARGSRYNWNYDAFDIWGQGTLVTVSS
VL: DIQMTQSPSSLSASIGDRVTITCRASQGIRNALGWYQQKPGKAPKRLIYAASNLQSGVPSRFSGSGSGTEFTLTISSLQPEDFATYYCLQHNSYPFTFGPGTKVEIKR
In turn, B2 returned a Kd in test [4] of 0.17 nM. In addition, in test [5], the “IC50 of indirect killing assay to evaluate the internalization in AsPC1 cells” value (from here on “IC50 of indirect killing assay”) turned out to be 0.14 nM.

B3: 2F9 (hybridoma clone supernatant) (antibody, V domains shown)
VH: B2 VH
VL: DIQMTQSPSSLSASIGDRVTITCRASQGIRNALGWYQQKPGKAPKRLIYAASNLQSGVPSRFSGSGSGTEFTLTISSLQPEDFATYYCLQHNSYPFTFGPGTKVEIK
notes: Hybridoma supernatant
In the case of B3, the figures for the OD450 (with BSA [1]; in test [3]) were 0.0718 OD450 and 1.72 OD450, respectively. Further, the binding result in the test with BSA [2] is given as “no binding”.

B4: 9E2 anti-CDH17 recombinant antibody (human IgG1) (antibody, V domains shown)
VH: B2 VH with D31N, L51I, S52N, N57S, K65R, N105S
VL: B2 VL with I15V, I29V, N53S
Turning to B4, in test [4], the Kd stood at 0.31 nM. Besides, in test [5], the “IC50 of indirect killing assay” value worked out at 0.15 nM.

B5: 1H10 anti-CDH17 recombinant antibody (human IgG1) (antibody, V domains shown)
VH: QVQLVESGGGVVQPGRSLRLSCVASGFTFSSYGMHWVRQAPGKGLEWVTFIWYDGSNKNYADSVKGRFTISRDNSKNTLNLQMNSLRVEDTAVYYCARDRYSSGWDVFDYWGQGTLVTVSS
VL: DIQMTQSPSSVSASVGDRVTITCRASQDISSWLAWYQQQPGKAPKLQIYAASSLQSGVPSRFSGSGSGTDFTLTISSLQPEDFATYYCQQAKSFPPTFGQGTKVEIKR
Consider B5, for which the Kd in test [4] amounted to 0.31 nM. Besides, in test [5], the “IC50 of indirect killing assay” value is 0.19 nM.

B6: 15A4 (hybridoma clone supernatant) (antibody, V domains shown)
VH: B5 VH with V23A, T28N, T49A, I51V, K58Q, K76N, N80Y, V88A
VL: DIQMTQSPSSVSASVGDRVTITCRASQGISSWLAWYQQKPGKAPKLLIFAASSLQSGVPSRFSGSGSGTGFTLTISSLQPEDFATYYCQQAKSFPPTFGQGTKVEIK
notes: Hybridoma supernatant
Regarding B6, the OD450 with BSA [1] came to 0.0431 OD450; in test [3], 1.6 OD450. The binding result with BSA [2] is “no binding”.

B7: 1H10 (hybridoma clone supernatant) (antibody, V domains shown)
VH: B5 VH
VL: B6 VL with G28D, K39Q, L47Q, F49Y, G70D
notes: Hybridoma supernatant from mice encoding human heavy and kappa variable regions
For the molecule B7, the OD450 with BSA [1] came out at 0.0399 OD450; in test [3], 1.79 OD450. The binding result with BSA [2] is “no binding”.

B8: 13C7 anti-CDH17 recombinant antibody (human IgG1) (antibody, V domains shown)
VH: QITLKESGPTLVKPTQTLTLTCTFSGFSLSTSGVGVGWIRQPPGKALEWLALIYWNDDKRYRPSLKNRLTITKDTSKNQVVLTMTNMDPVDTATYYCTHYGVTAPFYNWFDPWGQGTLVTVSS
VL: DIQMTQSPSSLSASVGDRVTITCRASQSITSYLNWYQQKPGKAPKLLIYAASSLQSGVPSRFSGSGSGTDFTLTISSLQPEDFATYYCQRSYSTLTFGGGTKVEIKR
Regarding B8, binding in test [4] was characterised by a dissociation constant (Kd) of 0.28 nM. Besides, in test [5], the “IC50 of indirect killing assay” value stood at 0.09 nM.

B9: 13C7 (hybridoma clone supernatant) (antibody, V domains shown)
VH: B8 VH
VL: DIQMTQSPSSLSASVGDRVTITCRASQSITSYLNWYQQKPGKAPKLLIYAASSLQSGVPSRFSGSGSGTDFTLTISSLQPEDFATYYCQRSYSTLTFGGGTKVEIK
notes: Hybridoma supernatant
On to B9, for which the OD450 with BSA [1] turned out to be 0.0432 OD450; in test [3] it was 1.62 OD450. In the test with BSA [2], the binding result is on record as “no binding”.

B10: 19C7 anti-CDH17 recombinant antibody (human IgG1) (antibody, V domains shown)
VH: B8 VH with F27I, S32G, A51S, R62S, N67S, T75S, T98A, Y100S, V102L, T103A
VL: B8 VL with T30S, S31N, Q38L, K42N, Y49F, Y87F
As for B10, binding in test [4] was put at a Kd of 0.13 nM. Further, in test [5], the “IC50 of indirect killing assay” value stood at 0.09 nM.

B11: 19C7 (hybridoma clone supernatant) (antibody, V domains shown)
VH: B8 VH with F27I, S32G, A51S, R62S, N67S, T75S, T98A, Y100S, V102L, T103A
VL: B9 VL with T30S, S31N, Q38L, K42N, Y49F, Y87F
notes: Hybridoma supernatant
Take B11: the OD450 is 0.0468 OD450 with BSA [1] and 1.84 OD450 in test [3]. For the same molecule, the binding result with BSA [2] was “no binding”.

B12: 10E11 (hybridoma clone supernatant) (antibody, V domains shown)
VH: EVQLVQSGTEVKKPGESLKISCKDSGYRFSSYWIGWVRQMPGKGLEWMGIIYPGDSDTRYSPSFQGQVTISADKSISTAYLQWRSLKASDTAMYYCARRGWVNYFDYWGQGTLVTVSS
VL: B6 VL with S31N, A34G, F49Y, G70D, K92N, P96L, Q100G
notes: Hybridoma supernatant
Consider B12, for which the results for the OD450 (with BSA [1]; in test [3]) were 0.0475 OD450 and 1.48 OD450, respectively. For the same molecule, the binding result with BSA [2] is recorded as “no binding”.

B13: 17F3 anti-CDH17 recombinant antibody (human IgG1) (antibody, V domains shown)
VH: EVQLVESGGGLVKSGGSLRLSCAASGFTFSSYSLKWVRQAPGKGLEWVSSISSSSGYIYYADSVKGRFTISRDNAKNSLYLQMNSLRAEDTAMYYCARAVSTIAARPGYYYYYMDVWGKGTLVTVSS
VL: DIQMTQSPSSVSASIGDRVTITCRASQDISTWFAWYQQKPGKAPKLLIYAASTLRSGVPSRFSGSGSGTDFTLTINSLQPEDFATYYCQQANSFPLTFGGGTKVEIKR
B13 had a Kd in test [4] of 0.74 nM. Moreover, the “IC50 of indirect killing assay” value in test [5] came out at 0.08 nM.

B14: 17F3 (hybridoma clone supernatant) (antibody, V domains shown)
VH: B13 VH
VL: DIQMTQSPSSVSASIGDRVTITCRASQDISTWFAWYQQKPGKAPKLLIYAASTLRSGVPSRFSGSGSGTDFTLTINSLQPEDFATYYCQQANSFPLTFGGGTKVEIK
notes: Hybridoma supernatant
Turning to B14, the OD450 in the test with BSA [1] was 0.0425 OD450; in test [3], 1.66 OD450. The binding result in the test with BSA [2] is reported as “no binding”.

The values are drawn from US20260232828A1, “LIGAND-CYTOTOXICITY DRUG CONJUGATES AND PHARMACEUTICAL USES THEREOF” (HANSOH BIO LLC, priority 2023, published 2026).
